Biological target: T1, DLL3 purified protein (human, UniProt Q9NYJ7 27-492, limits assumed)
T1 construct: also called purified DLL3; immobilized human DLL3
T1 sequence (looked up): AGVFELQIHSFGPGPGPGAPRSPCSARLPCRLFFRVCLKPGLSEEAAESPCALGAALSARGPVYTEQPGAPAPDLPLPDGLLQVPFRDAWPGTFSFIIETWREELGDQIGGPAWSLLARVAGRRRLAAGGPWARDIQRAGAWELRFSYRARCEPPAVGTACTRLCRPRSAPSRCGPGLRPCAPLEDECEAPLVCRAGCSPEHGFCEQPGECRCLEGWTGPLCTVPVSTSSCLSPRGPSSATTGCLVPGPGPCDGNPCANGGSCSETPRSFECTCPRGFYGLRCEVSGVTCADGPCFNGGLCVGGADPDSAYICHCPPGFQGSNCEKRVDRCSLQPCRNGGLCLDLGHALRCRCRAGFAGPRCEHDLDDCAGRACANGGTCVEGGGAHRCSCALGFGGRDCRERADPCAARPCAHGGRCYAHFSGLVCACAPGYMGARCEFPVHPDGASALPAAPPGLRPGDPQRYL
Experiment: ELISA, plate coated with 1 ug/ml purified DLL3, serially diluted antibody, detection with HRP-conjugated anti-human IgG1 reporter mAb, TMB, OD450
From the text: Site-specific anti-DLL3 antibodies fabricated as set forth in the previous Examples were screened by an ELISA assay to determine whether they bound to DLL3 purified protein. The parental native antibody was used as a control and run alongside the site-specific anti-DLL3 antibody. Binding of the antibodies to DLL3 was detected with a monoclonal antibody (mAb) reporter antibody conjugated to horseradish peroxidase (HRP), (Southern Biotech, Cat. No. SB9052-05), which binds to an epitope present on human IgG1 molecules. HRP reacts with its substrate tetramethyl benzidine (TMB). The amount of […] TMB is directly proportional to the amount of test antibody bound to DLL3.
ELISA plates were coated with 1 μg/ml purified DLL3 in PBS and incubated overnight at 4° C. Excess protein was removed by washing and the wells were blocked with 2% (w/v) BSA in PBS with 0.05% tween 20 (PBST), 200 μL/well for 1 hour at room temperature. After washing, 100 μL/well serially diluted antibody or ADC were added in PBST for 1 hour at room temperature. The plates were washed again and 0.5 ug/ml of 100 μL/well of the appropriate reporter antibody was added in PBST for 1 hour at room temperature. […] The samples were then analyzed by spectrophotometer at OD 450.

B1: hSC16.56 (antibody, human IgG1, kappa, V domains shown)
VH: QVQLVQSGAEVKKPGASVKVSCKASGYTFTNYGMNWVRQAPGQGLEWMGWINTYTGEPTYADDFKGRVTMTTDTSTSTAYMELRSLRSDDTAVYYCARIGDSSPSDYWGQGTLVTVSS
VL: EIVMTQSPATLSVSPGERATLSCKASQSVSNDVVWYQQKPGQAPRLLIYYASNRYTGIPARFSGSGSGTEFTLTISSLQSEDFAVYYCQQDYTSPWTFGQGTKLEIKR
notes: Native human IgG1/kappa; also called humanized SC16.56; humanized anti-DLL3 antibody hSC16.56
B1 was tested, and the “EC50 (read off the curve)” value was about 10 ng/mL.

Source: patent US20180346565A1 (AbbVie / Abbott, published 2018)
